US20260365696A1, “INHIBITORS OF PTP1B / NCK1 INTERACTION AND METHODS OF MAKING AND USING SAME” (Radella Pharmaceuticals LLC, priority 2023, published 2026)
Read-outs that look alike come from different tables or passages of the source. Blank lines part the entries; values can stand above or below the binder they belong to. Non-standard residues stand in square brackets, D forms with d. No end group written: not given here. pGlu = O=C1CC[C@@H](C(=O)O)N1

How the values were obtained:
Assay in all cases: ITC
[1] = target: T1, NCK1 SH3-2 domain (human)
T1 chain: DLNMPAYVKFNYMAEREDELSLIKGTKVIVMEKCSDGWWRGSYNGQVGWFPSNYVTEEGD

[2] = target: T1, NCK1 SH3-2 domain
[3] = target: T1, NCK1 SH3-2 domain
[4] = target: T1, NCK1 SH3-2 domain
[5] = target: T1, NCK1 SH3-2 domain
[6] = target: T1, NCK1 SH3-2 domain
[7] = target: T1, NCK1 SH3-2 domain

binding result [2]: no binding
Binder: Ac-PAVPPRP-NH2 [MH082]

binding result [2]: no binding
Binder: Ac-SPAKGEPSLPEK-NH2 [MH133]

binding result [2]: no binding
Binder: H-PAVPPRP-NH2 [MH081]

binding result [7]: no binding
Binder: [pGlu]RPPKR-NH2 [MH044]

The next lines start with the binder.

Binder: Ac-PPRPPKK-NH2 [MH076]
Kd [1]: > 1000 µM

Binder: Ac-PPRPPKR-NHEt [MH046]
Kd [1]: < 300 µM

Binder: H-PPRPPKR-NH2 [MH075]
Kd [1]: < 300 µM

Binder: Ac-PPRPPKR-NH2 [MD18]
Kd [3]: < 193 µM
Kd [4]: < 300 µM

Binder: Ac-APRPPKR-NH2 [MH047]
Kd [1]: < 300 µM
Kd [5]: < 300 µM
Kd [4]: < 300 µM

Binder: EPRPPKR-NH2 (not fully specified (residue 1)) [MH043]
Kd [1]: < 300 µM

Binder: Ac-PRPPKR-NH2 [MD20]
Kd [3]: < 193 µM
Kd [6]: < 300 µM
Kd [4]: < 300 µM

Binder: Ac-PRPPAR-NH2 [MH012]
Kd [6]: < 600 µM
